Data on 4 molecules can be found in patent US20230312758A1, “BISPECIFIC ANTIBODY AGAINST CD3 AND CD20 IN COMBINATION THERAPY FOR TREATING FOLLICULAR LYMPHOMA” (GENMAB A/S, priority 2020, published 2023).

One data set deals with follicular lymphoma. The conditions noted are these: double-refractory cases; cited from earlier work.
Another data set concerns T cells. The data set can be described thus: T-cell activation with immobilized anti-CD3 in presence or absence of lenalidomide. In kind it is cell-based. The conditions noted are these: 5 or 50 μM lenalidomide, CD3 crosslinking, 3 days; compared to no lenalidomide. On the procedure: T cells were pre-incubated with assay medium or lenalidomide in the absence or presence of CD3 crosslinking by immobilized anti-CD3 for 3 days (as indicated on the x-axes), after which upregulation of CD69, CD25, PD-1 and LAMP-1 on CD4^+ and CD8^+ T cells was determined by flow cytometry. Data shown are geomean fluorescence intensities (FI) for four donors (each circle represents one condition for one donor). Pre-incubation conditions are shown on the x-axis.
(§1) This experiment was performed to determine the impact of lenalidomide on Duobody-CD3xCD20-induced T-cell activation and T-cell-mediated cytotoxicity.
(§2) Briefly, T cells were activated with immobilized anti-CD3 in the presence (5 or 50 μM) or absence of lenalidomide for 3 days. […] T cells that were activated in the presence or absence of lenalidomide were subsequently tested for their cytotoxic capacity in response to epcoritamab.

For a further data set, the target named is T1, CD20 (Homo sapiens, UniProt P11836).
T1 sequence (P11836 1-297): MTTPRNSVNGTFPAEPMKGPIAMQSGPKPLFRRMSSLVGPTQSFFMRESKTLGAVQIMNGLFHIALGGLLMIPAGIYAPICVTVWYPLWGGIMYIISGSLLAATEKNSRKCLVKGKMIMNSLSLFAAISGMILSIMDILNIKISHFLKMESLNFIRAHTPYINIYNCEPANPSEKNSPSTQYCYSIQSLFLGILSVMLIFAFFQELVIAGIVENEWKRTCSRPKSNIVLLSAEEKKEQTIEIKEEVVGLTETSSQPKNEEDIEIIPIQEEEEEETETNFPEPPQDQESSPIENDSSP
The note with it: rituximab versus IgG1-CD20; bind to a different epitope; cited from earlier work.

The next data set deals with R/R follicular lymphoma. In words: Phase 1b study of epcoritamab with rituximab and lenalidomide (R^2). In kind it is in vivo, human. The conditions noted are these: preliminary data. Here is the method: The trial is conducted in 2 parts: dose escalation (Part 1) and expansion (Part 2). Subjects participate in only one part. Both parts consist of a screening period, a treatment period, a safety follow-up period, and a survival follow-up period.
The Part 1 dose escalation assesses the initial safety, tolerability, and clinical activity of epcoritamab in combination with R^2. Epcoritamab is initially be administered in combination with R^2 in a 3-subject cohort. DLTs are evaluated during the first 28 days. […]
In Part 2, epcoritamab is administered (with the dosing regimen determined in the dose escalation part) in combination with R^2. […]
Disease response is assessed according to both Lugano criteria (described in Cheson et al., J Clin Oncol 2014; 32:3059-68 (see, in particular, Table 3 in Cheson et al., 2014) and LYRIC (Table 8) to inform decisions on continuation of treatment. […]
Safety is assessed by measuring adverse events, laboratory test results, ECGs, vital sign measurements, physical examination findings, and ECOG performance status. Also assessed are immune effector cell-associated neurotoxicity syndrome (e.g., as described by Lee et al., Biol BloodMarrow Transplant 2019; 25:625-638), constitutional symptoms (B symptoms), tumor flare reaction, and survival. […]

Data set [1] concerns CD20-expressing Raji-luc tumor cells. The note with it: NOD-SCID mice injected with Raji-luc tumor cells and PBMCs; even in presence of excess IgG1-RTX-FEAR; cited from earlier work.
The subject of data set [2] is CD20-expressing Daudi cells. In words: DuoBody-CD3xCD20-induced T-cell-mediated cytotoxicity assay. In kind it is cell-based. The conditions noted are these: T cells pre-treated with lenalidomide and anti-CD3; E:T ratio 2:1. Here is the method: T cells were incubated with (5 or 50 μM) or without lenalidomide in the absence or presence of immobilized anti-CD3 for 3 days. T cells were then used in a cytotoxicity assay with DuoBody-CD3xCD20 or DuoBody-CD3xctrl (containing a CD3 arm and a non-binding control arm) and CD20-expressing Daudi cells as target cells (E:T ratio 2:1). Data shown are average percentages cytotoxicity ±SD of duplicates, normalized to medium control (no antibody, no lenalidomide).
as §1, §2

The next data set deals with R/R B-NHL. The data set can be described thus: epcoritamab monotherapy clinical trial (NCT03625037). The format is in vivo, human. The note with it: R/R B-NHL patients, preliminary data. The text has this:
Epcoritamab as monotherapy is currently in a clinical trial for the treatment of R/R B-NHL (ClinicalTrials.gov Identifier: NCT03625037).

Data set [3] has as its system primary DLBCL and follicular lymphoma patient biopsies. The conditions noted are these: cited from earlier work.

`CC[C@H](Nc1ncnc2[nH]cnc12)c1nc2cccc(F)c2c(=O)n1-c1ccccc1` [idelalisib]: in the data set with follicular lymphoma, the “1-year PFS” value is listed as 43% and the toxicities entry is “several toxicities leading to treatment discontinuation”.

For `Nc1cccc2c1CN(C1CCC(=O)NC1=O)C2=O` (centres unmarked) [lenalidomide, 3-(4-Amino-1-oxo-1,3-dihydro-2H-isoindol-2-yl) piperidine-2,6-dione], in the data set on T cells, the “T-cell activation (CD69, CD25 upregulation, release of granzyme B and IFNγ)” value is listed as “increased T-cell activation”.

Turning to “IgG1-CD20: antibody of which the CD20 arm of epcoritamab is derived”, the “competition for CD20 binding” value in the data set with CD20 is given as “compete for CD20 binding”.

Take “epcoritamab: IgG1 bispecific CD3xCD20 antibody; heavy/light chain pairs SEQ ID NOs: 24/25 and 26/27; CAS 2134641-34-0”: in the data set with R/R follicular lymphoma, the “incidence of CRS compared with single-agent epcoritamab” value is “relatively lower incidence of CRS with the combination”. Further, in data set [1], the tumor growth entry is given as “effectively reduce tumor growth”. Also, in data set [2], the “cytotoxicity (dose response)” value is “Higher maximum percent cytotoxicity and higher activity at lower epcoritamab concentrations”. Moreover, the tolerated dose result in the data set on R/R B-NHL (including 60 mg) is “at least 48 mg”. For the same molecule, in the data set on R/R B-NHL, the dose-limiting toxicities result is recorded as “no dose-limiting toxicities reported”. Besides, the tumor cell kill result in data set [3] (biopsy taken 2 weeks after administering the anti-CD20 antibody) was “up to 40%”. The T-cell-mediated cytotoxicity entry in data set [3] was “induced T-cell-mediated cytotoxicity”.
